Reference: article PMC7498318
Like-named read-outs stand apart in the source and are kept apart here.

Experiments:
Experiment in all cases: fluorescence anisotropy
[1] = target: T1, hnRNPK full-length (human/mouse (100% identical), UniProt P61978 1-463)
[2] = target: hnRNPK deltaKH3 (human/mouse (100% identical), UniProt P61978 1-337)
[3] = target: hnRNPK KH3 (human/mouse (100% identical), UniProt P61978 379-463)
[4] = target: T1, hnRNPK full-length; remark: listed apart in the source
[5] = target: hnRNPK KH1 (human/mouse (100% identical), UniProt P61978 37-120)
[6] = target: T1, hnRNPK full-length; remark: listed apart in the source
[7] = target: hnRNPK R9 to S9 (human/mouse (100% identical), UniProt P61978 1-463, R247S;R256S;R258S;R268S;R287S;R296S;R299S;R316S;R326S)

## GGCUCCCCCGACCUCUGUGCUCCCCUCCCCCGACCUCUGUGC (ssRNA) [MYU lncRNA]
[1]
  Kd: 70 ± 7 nM
[2]
  Kd: 120 ± 10 nM

## GGUCCCCCGCCUCAUUCGCCCCUCUGCUCCC (ssRNA) [CDK6 3'UTR]
[1]
  Kd: 450 ± 60 nM
[2]
  Kd: 710 ± 50 nM
[3]
  Kd: 12.9 ± 0.7 µM

## GCAGCCCCAGUUUCAGCCCCUAUUUCUGUUUCUGUUUCUGC (structured_RNA) [(1,3)]
[4]
  binding result: no binding

B1: Exon 4 hp (structured_RNA)
RNA: GCUGGCGACCUAUUCCCUUUGACGAUCCCUAGGUGGAGAUGGGGCAUGAGGAUCCUCCAGGGGAAUAGCUCACCACC
[1]
  binding result: no binding

## GCAGCCCCAGCCCCAGCCCCUACCCCUGCCCCUGCCCCUGC (structured_RNA) [B motif RNA WT]
[1]
  Kd: 61 ± 6 nM
[2]
  Kd: 140 ± 30 nM
[5]
  binding result: no binding

## GCAGCCCCAGCCCCAGCCCCUACCCCUGCCCCUGUUUCUGC (structured_RNA) [(1,2,3,4,5)]
[6]
  binding result: binds

## GCGCCUCCCGGGUUCAAGCGAUUCUCCUGCCUCAGCCUCCCGA (ssRNA) [Sirloin motif]
[1]
  Kd: 690 ± 20 nM
[2]
  Kd: 760 ± 40 nM

## GCAGCCCCAGCCCCAGCCCCUACCCCUGUUUCUGUUUCUGC (structured_RNA) [(1,2,3,4)]
[6]
  binding result: binds

## GCAGCCCCAGUUUCAGUUUUUAUUUCUGUUUCUGCCCCUGC (structured_RNA) [(1,6)]
[4]
  binding result: no binding

## GUCAUUUUCUCCCUUUCUGUUUUUCUUC (ssRNA) [Rab7]
[1]
  Kd: 110 ± 20 nM
[2]
  Kd: 360 ± 80 nM

## GCCAACCUCUUCCCAUUUCCCACACUCCAACUCCCU (ssRNA) [Ucp2]
[1]
  Kd: 44 ± 3 nM
[2]
  Kd: 87 ± 9 nM
[3]
  Kd: 11.1 ± 0.6 µM

## ATATTCCCTC (ssDNA) [M5' ssDNA]
[7]
  Kd: 3000 ± 100 nM
[1]
  Kd: 1400 ± 200 nM
[3]
  Kd: 8.7 ± 1.3 µM

## GCAGUUUCAGCCCCAGCCCCUAUUUCUGUUUCUGUUUCUGC (structured_RNA) [(2,3)]
[1]
  Kd: 710 nM

## GCAGCCCCAGCCCCAGCCCCUAUUUCUGUUUCUGUUUCUGC (structured_RNA) [(1,2,3)]
[6]
  binding result: binds
